# Source: patent US20080131510
# T1: Lys*-Ala-Gly-Leu-Leu-Cys (SEQ ID NO:32)
# T1 chain: KAGLLC
# T2: Lys*-Pro-Ala-Gly-Leu-Leu-Gly-Cys (SEQ ID NO:2)
# T2 chain: KPAGLLGC
# T3: Lys*-Gly-Leu-Cys (SEQ ID NO:33)
# T3 chain: KGLC
# T4: Lys*-Pro-Ala-Gly-Leu-Leu-Gly-Cys (SEQ ID NO:2), pendant in PEG(8000)DA hydrogel and complexed with Pt (not fully specified)
# T4 chain: KPAGLLGC
# B1: matrix metalloprotease-2 (MMP-2), activated (protein)
# chain: YNFFPRKPKWDKNQITYRIIGYTPDLDPETVDDAFARAFQVWSDVTPLRFSRIHDGEADIMINFGRWEHGDGYPFDGKDGLLAHAFAPGTGVGGDSHFDDDELWTLGEGQVVRVKYGNADGEYCKFPFLFNGKEYNSCTDTGRSDGFLWCSTTYNFEKDGKYGFCPHEALFTMGGNAEGQPCKFPFRFQGTSYDSCTTEGRTDGYRWCGTTEDYDRDKKYGFCPETAMSTVGGNSEGAPCVFPFTFLGNKYESCTSAGRSDGKMWCATTANYDDDRKWGFCPDQGYSLFLVAAHEFGHAMGLEHSQDPGALMAPIYTYTKNFRLSQDDIKGIQELYGASPDIDLGTGPTPTLGPVTPEICKQDIVFDGIAQIRGEIFFFKDRFIWRTVTPRDKPMGPLLVATFWPELPEKIDAVYEAPQEEKAVFFAGNEYWIYSASTLERGYPKPLTSLGLPPDVQRVDAAFNWSKNKKTYIFAGDKFWRYNEVKKKMDPGFPKLIADAWNAIPDNLDAVVDLQGGGHSYFFKGAYYLKLENQSLKSVKFGSIKSDWLGC
# What was measured:
# [1] = target: T1, Lys*-Ala-Gly-Leu-Leu-Cys (SEQ ID NO:32)
# [2] = target: T2, Lys*-Pro-Ala-Gly-Leu-Leu-Gly-Cys (SEQ …)
# [3] = target: T3, Lys*-Gly-Leu-Cys (SEQ ID NO:33)
# [4] = target: T4, Lys*-Pro-Ala-Gly-Leu-Leu-Gly-Cys (SEQ …)
# [5] = target: T1, Lys*-Ala-Gly-Leu-Leu-Cys (SEQ ID NO:32); test: peptide cleavage kinetics by HPLC, 10 nM activated MMP; the filing calls Km 'affinity or binding strength'
# [6] = target: T2, Lys*-Pro-Ala-Gly-Leu-Leu-Gly-Cys (SEQ …); test: as above
# [7] = target: T3, Lys*-Gly-Leu-Cys (SEQ ID NO:33); test: as above
protein,measurement,setting,value
B1,Kcat/Km,[1],171 M⁻¹ s⁻¹
same,Vmax,[1],6.02e-09 M/s
same,kcat,[1],0.24 s⁻¹
same,Kcat/Km,[2],10700 M⁻¹ s⁻¹
same,Vmax,[2],2.7e-07 M/s
same,kcat,[2],10.7 s⁻¹
same,Kcat/Km,[3],439 M⁻¹ s⁻¹
same,Vmax,[3],8.8e-10 M/s
same,kcat,[3],0.035 s⁻¹
same,release of cleaved fragment from the PEG(8000)DA hydrogels,[4],the addition of MMP-2 and MMP-9 showed a significantly higher release of cleaved fragment from the PEG(8000)DA hydrogels compared to the control
same,Km,[5],1400 µM
same,Km,[6],1000 µM
same,Km,[7],81 µM
